Earlier results on 1 substance are cited in patent US20240199736A1, “COMBINATION THERAPY INVOLVING ANTIBODIES AGAINST CLAUDIN 18.2 FOR TREATMENT OF CANCER” (ASTELLAS PHARMA INC., priority 2021, published 2024).

Data set [1] has as its target splice variant 1 of Claudin 18 (CLDN18.1) (Homo sapiens, UniProt P56856).
In data set [2] the target is first extracellular domain (ECD1) of CLDN18.2 (Homo sapiens, UniProt P56856).

Regarding “IMAB362: chimeric IgG1 antibody directed against CLDN18.2; heavy chain SEQ ID NO: 51, light chain SEQ ID NO: 24”, the “Binding to other claudin family members including CLDN18.1” value in data set [1] is listed as “does not bind”. In addition, the “Recognition of ECD1 of CLDN18.2” value in data set [2] is “high affinity and specificity”.
